Results on two molecules are retold here after patent US20020156009A1 (published 2002).

The target of experiment [1] is interleukin-1 (IL-1) receptor on human cells (human) (UniProt P14778). Kind of experiment: cell-based or functional assay.
The target of experiment [2] is T1, bovine serum albumin (BSA) (bovine, UniProt P02769 25-607).
T1 construct: also called non-related protein
In words: FACS on human fibroblast cells (CCD 1089). How it is done:
A cell binding assay was carried out, in a modification of the procedure as described above in Example 7.1, to determine if IL-1 Hy2 of the invention binds to the interleukin-1 (IL-1) receptor. Briefly, fluorescent activated cell sorting (FACS) was used to measure cell binding of the recombinant protein (see Example 6) using fluorescent antibodies specific for the express tag on the IL-1 Hy2 recombinant protein. In each reaction, 10⁶ cells of human fibroblast cells (CCD 1089) were suspended in 100 μl of FACS buffer (containing distilled PBS, 3% calf serum and 0.01% azide). Cell binding reactions included 5 nM recombinant IL-1 Hy2 in 100 μl cell suspension. The cells were incubated on ice for one hour. The cells were pelleted by centrifugation, 200 μl of 0.2 mM BS3 (crosslinker) was added, and the cells were kept on ice for 30 minutes. Next, 10 μl […] pH 7.5 was added and the cells were incubated for 15 minutes on ice. The cells were pelleted by centrifugation, washed one time in FACS buffer, resuspended in 100 μl volume of FACS buffer, 2 μl primary antibody (anti-express tag antibody 1 mg/ml) was added, and incubation continued on ice for an additional 30 minutes. […] The cells were again pelleted by centrifugation, washed two times with FACS buffer, resuspended in 0.5 ml FACS buffer and analyzed on FACS.

T1 sequence (P02769 25-607 limits assumed): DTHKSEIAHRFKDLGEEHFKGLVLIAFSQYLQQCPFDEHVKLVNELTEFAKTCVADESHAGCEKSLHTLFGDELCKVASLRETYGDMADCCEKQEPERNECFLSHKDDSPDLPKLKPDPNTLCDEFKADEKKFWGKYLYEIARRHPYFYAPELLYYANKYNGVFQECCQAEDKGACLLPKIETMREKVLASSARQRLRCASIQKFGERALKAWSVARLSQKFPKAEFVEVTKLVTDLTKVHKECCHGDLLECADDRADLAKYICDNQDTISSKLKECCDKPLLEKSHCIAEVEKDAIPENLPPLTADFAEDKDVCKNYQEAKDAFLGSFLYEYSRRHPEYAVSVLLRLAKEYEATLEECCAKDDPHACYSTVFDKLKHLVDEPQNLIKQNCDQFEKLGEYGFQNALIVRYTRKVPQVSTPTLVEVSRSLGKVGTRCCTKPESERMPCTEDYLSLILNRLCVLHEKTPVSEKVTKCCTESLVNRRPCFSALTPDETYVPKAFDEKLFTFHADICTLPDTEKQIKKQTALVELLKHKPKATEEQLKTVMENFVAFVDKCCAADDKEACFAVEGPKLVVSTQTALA

In experiment [1], “IL-1 Hy2 (preparation used in the cell-based activity assays) (from UniProt Q8WWZ1 1-152) (ligand)” registered an inhibition of IL-1β induced PGE2 production, human fibroblasts (CCD 1098), 1 ng/ml IL-1β, IL-1 Hy2 at 1000 fold excess, PGE2 ELISA of 40 to 60%.

B1: interleukin-1 (IL-1) receptor on human cells (receptor, UniProt P14778 18-569, looked up)
chain: LEADKCKEREEKIILVSSANEIDVRPCPLNPNEHKGTITWYKDDSKTPVSTEQASRIHQHKEKLWFVPAKVEDSGHYYCVVRNSSYCLRIKISAKFVENEPNLCYNAQAIFKQKLPVAGDGGLVCPYMEFFKNENNELPKLQWYKDCKPLLLDNIHFSGVKDRLIVMNVAEKHRGNYTCHASYTYLGKQYPITRVIEFITLEENKPTRPVIVSPANETMEVDLGSQIQLICNVTGQLSDIAYWKWNGSVIDEDDPVLGEDYYSVENPANKRRSTLITVLNISEIESRFYKHPFTCFAKNTHGIDAAYIQLIYPVTNFQKHMIGICVTLTVIIVCSVFIYKIFKIDIVLWYRDSCYDFLPIKASDGKTYDAYILYPKTVGEGSTSDCDIFVFKVLPEVLEKQCGYKLFIYGRDDYVGEDIVEVINENVKKSRRLIIILVRETSGFSWLGGSSEEQIAMYNALVQDGIKVVLLELEKIQDYEKMPESIKFIKQKHGAIRWSGDFTQGPQSAKTRFWKNVRYHMPVQRRSPSSKHQLLSPATKEKLQREAHVPLG
notes: whole, on cells
Consider B1, for which, in experiment [2], the binding result is given as “no binding (tested: same molarity as IL-1 Hy2 (5 nM))”.
